Test results taken from patent US20260070987A1.

molecular target: equine FcRn (large alpha subunit p51) in complex with equine beta-2-microglobulin (equine) (UniProt F6XZ61); assay: SPR (Biacore), pH 6
Sequence of UniProt F6XZ61 (F6XZ61 entry or part of it, one chain of several): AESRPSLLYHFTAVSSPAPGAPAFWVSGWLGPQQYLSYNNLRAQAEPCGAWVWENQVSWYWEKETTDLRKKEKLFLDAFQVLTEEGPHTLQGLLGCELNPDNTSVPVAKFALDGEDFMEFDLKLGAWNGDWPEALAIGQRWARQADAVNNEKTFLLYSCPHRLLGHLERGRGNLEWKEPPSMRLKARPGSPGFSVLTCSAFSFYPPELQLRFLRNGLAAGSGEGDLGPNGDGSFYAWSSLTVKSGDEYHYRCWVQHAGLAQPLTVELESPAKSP

Row | Kd | Binder
1 | 7400 nM | equine IgG7 N434G mutant (antibody, part only; not given: variable domains, not shown: another chain or arm of the molecule; small tags and cut ends) constant: ASTTAPKVFPLASHSAATSGSTVALGCLVSSYFPEPVTVSWNSGALTSGVHTFPSVLQSSGLYSLSSMVTVPASSLKSQTYICNVAHPASSTKVDKKIVIKECGGCPTCPECLSVGPSVFIFPPKPKDVLMISRTPTVTCVVVDVGHDFPDVQFNWYVDGVETHTATTEPKQEQNNSTYRVVSILAIQHKDWLSGKEFKCKVNNQALPAPVQKTISKPTGQPREPQVYVLAPHRDELSKNKVSVTCLVKDFYPTDIDIEWKSNGQPEPETKYSTTPAQLDSDGSYFLYSKLTVETNRWQQGTTFTCAVMHEALHGHYTEKSVSKSPGK
2 | 6700 nM | equine IgG7 N434V mutant (antibody, part only; not given: Variable domains, not shown: another chain or arm of the molecule) constant: ASTTAPKVFPLASHSAATSGSTVALGCLVSSYFPEPVTVSWNSGALTSGVHTFPSVLQSSGLYSLSSMVTVPASSLKSQTYICNVAHPASSTKVDKKIVIKECGGCPTCPECLSVGPSVFIFPPKPKDVLMISRTPTVTCVVVDVGHDFPDVQFNWYVDGVETHTATTEPKQEQNNSTYRVVSILAIQHKDWLSGKEFKCKVNNQALPAPVQKTISKPTGQPREPQVYVLAPHRDELSKNKVSVTCLVKDFYPTDIDIEWKSNGQPEPETKYSTTPAQLDSDGSYFLYSKLTVETNRWQQGTTFTCAVMHEALHVHYTEKSVSKSPGK
3 | 1.3 nM | equine IgG7 N434W mutant (antibody, part only; not given: variable domains, not shown: another chain or arm of the molecule) constant: ASTTAPKVFPLASHSAATSGSTVALGCLVSSYFPEPVTVSWNSGALTSGVHTFPSVLQSSGLYSLSSMVTVPASSLKSQTYICNVAHPASSTKVDKKIVIKECGGCPTCPECLSVGPSVFIFPPKPKDVLMISRTPTVTCVVVDVGHDFPDVQFNWYVDGVETHTATTEPKQEQNNSTYRVVSILAIQHKDWLSGKEFKCKVNNQALPAPVQKTISKPTGQPREPQVYVLAPHRDELSKNKVSVTCLVKDFYPTDIDIEWKSNGQPEPETKYSTTPAQLDSDGSYFLYSKLTVETNRWQQGTTFTCAVMHEALHWHYTEKSVSKSPGK
4 | 194 nM | equine IgG7 N434P mutant (antibody, part only; not given: Variable domains, not shown: another chain or arm of the molecule) constant: ASTTAPKVFPLASHSAATSGSTVALGCLVSSYFPEPVTVSWNSGALTSGVHTFPSVLQSSGLYSLSSMVTVPASSLKSQTYICNVAHPASSTKVDKKIVIKECGGCPTCPECLSVGPSVFIFPPKPKDVLMISRTPTVTCVVVDVGHDFPDVQFNWYVDGVETHTATTEPKQEQNNSTYRVVSILAIQHKDWLSGKEFKCKVNNQALPAPVQKTISKPTGQPREPQVYVLAPHRDELSKNKVSVTCLVKDFYPTDIDIEWKSNGQPEPETKYSTTPAQLDSDGSYFLYSKLTVETNRWQQGTTFTCAVMHEALHPHYTEKSVSKSPGK
5 | 25.3 nM | equine IgG7 N434H mutant (antibody, part only; not given: Variable domains, not shown: another chain or arm of the molecule; small tags and cut ends) constant: ASTTAPKVFPLASHSAATSGSTVALGCLVSSYFPEPVTVSWNSGALTSGVHTFPSVLQSSGLYSLSSMVTVPASSLKSQTYICNVAHPASSTKVDKKIVIKECGGCPTCPECLSVGPSVFIFPPKPKDVLMISRTPTVTCVVVDVGHDFPDVQFNWYVDGVETHTATTEPKQEQNNSTYRVVSILAIQHKDWLSGKEFKCKVNNQALPAPVQKTISKPTGQPREPQVYVLAPHRDELSKNKVSVTCLVKDFYPTDIDIEWKSNGQPEPETKYSTTPAQLDSDGSYFLYSKLTVETNRWQQGTTFTCAVMHEALHHHYTEKSVSKSPGK
6 | 273 nM | equine IgG7 N434R mutant (antibody, part only; not given: Variable domains, not shown: another chain or arm of the molecule) constant: ASTTAPKVFPLASHSAATSGSTVALGCLVSSYFPEPVTVSWNSGALTSGVHTFPSVLQSSGLYSLSSMVTVPASSLKSQTYICNVAHPASSTKVDKKIVIKECGGCPTCPECLSVGPSVFIFPPKPKDVLMISRTPTVTCVVVDVGHDFPDVQFNWYVDGVETHTATTEPKQEQNNSTYRVVSILAIQHKDWLSGKEFKCKVNNQALPAPVQKTISKPTGQPREPQVYVLAPHRDELSKNKVSVTCLVKDFYPTDIDIEWKSNGQPEPETKYSTTPAQLDSDGSYFLYSKLTVETNRWQQGTTFTCAVMHEALHRHYTEKSVSKSPGK
7 | 114 nM | equine IgG7 N434S mutant (antibody, part only; not given: variable domains, not shown: another chain or arm of the molecule) constant: ASTTAPKVFPLASHSAATSGSTVALGCLVSSYFPEPVTVSWNSGALTSGVHTFPSVLQSSGLYSLSSMVTVPASSLKSQTYICNVAHPASSTKVDKKIVIKECGGCPTCPECLSVGPSVFIFPPKPKDVLMISRTPTVTCVVVDVGHDFPDVQFNWYVDGVETHTATTEPKQEQNNSTYRVVSILAIQHKDWLSGKEFKCKVNNQALPAPVQKTISKPTGQPREPQVYVLAPHRDELSKNKVSVTCLVKDFYPTDIDIEWKSNGQPEPETKYSTTPAQLDSDGSYFLYSKLTVETNRWQQGTTFTCAVMHEALHSHYTEKSVSKSPGK
8 | 159 nM | equine IgG7 N434T mutant (antibody, part only; not given: variable domains, not shown: another chain or arm of the molecule) constant: ASTTAPKVFPLASHSAATSGSTVALGCLVSSYFPEPVTVSWNSGALTSGVHTFPSVLQSSGLYSLSSMVTVPASSLKSQTYICNVAHPASSTKVDKKIVIKECGGCPTCPECLSVGPSVFIFPPKPKDVLMISRTPTVTCVVVDVGHDFPDVQFNWYVDGVETHTATTEPKQEQNNSTYRVVSILAIQHKDWLSGKEFKCKVNNQALPAPVQKTISKPTGQPREPQVYVLAPHRDELSKNKVSVTCLVKDFYPTDIDIEWKSNGQPEPETKYSTTPAQLDSDGSYFLYSKLTVETNRWQQGTTFTCAVMHEALHTHYTEKSVSKSPGK
9 | 31.7 nM | equine IgG7 N434K mutant (antibody, part only; not given: variable domains, not shown: another chain or arm of the molecule; small tags and cut ends) constant: ASTTAPKVFPLASHSAATSGSTVALGCLVSSYFPEPVTVSWNSGALTSGVHTFPSVLQSSGLYSLSSMVTVPASSLKSQTYICNVAHPASSTKVDKKIVIKECGGCPTCPECLSVGPSVFIFPPKPKDVLMISRTPTVTCVVVDVGHDFPDVQFNWYVDGVETHTATTEPKQEQNNSTYRVVSILAIQHKDWLSGKEFKCKVNNQALPAPVQKTISKPTGQPREPQVYVLAPHRDELSKNKVSVTCLVKDFYPTDIDIEWKSNGQPEPETKYSTTPAQLDSDGSYFLYSKLTVETNRWQQGTTFTCAVMHEALHKHYTEKSVSKSPGK
10 | 3.7 nM | equine IgG7 N434Y mutant (antibody, part only; not given: Variable domains, not shown: another chain or arm of the molecule) constant: ASTTAPKVFPLASHSAATSGSTVALGCLVSSYFPEPVTVSWNSGALTSGVHTFPSVLQSSGLYSLSSMVTVPASSLKSQTYICNVAHPASSTKVDKKIVIKECGGCPTCPECLSVGPSVFIFPPKPKDVLMISRTPTVTCVVVDVGHDFPDVQFNWYVDGVETHTATTEPKQEQNNSTYRVVSILAIQHKDWLSGKEFKCKVNNQALPAPVQKTISKPTGQPREPQVYVLAPHRDELSKNKVSVTCLVKDFYPTDIDIEWKSNGQPEPETKYSTTPAQLDSDGSYFLYSKLTVETNRWQQGTTFTCAVMHEALHYHYTEKSVSKSPGK

Continued, binder first:

Row | Binder | Kd
11 | equine IgG7 N434A mutant (antibody, part only; not given: variable domains, not shown: another chain or arm of the molecule) constant: ASTTAPKVFPLASHSAATSGSTVALGCLVSSYFPEPVTVSWNSGALTSGVHTFPSVLQSSGLYSLSSMVTVPASSLKSQTYICNVAHPASSTKVDKKIVIKECGGCPTCPECLSVGPSVFIFPPKPKDVLMISRTPTVTCVVVDVGHDFPDVQFNWYVDGVETHTATTEPKQEQNNSTYRVVSILAIQHKDWLSGKEFKCKVNNQALPAPVQKTISKPTGQPREPQVYVLAPHRDELSKNKVSVTCLVKDFYPTDIDIEWKSNGQPEPETKYSTTPAQLDSDGSYFLYSKLTVETNRWQQGTTFTCAVMHEALHAHYTEKSVSKSPGK | 36.4 nM
12 | equine IgG7 N434E mutant (antibody, part only; not given: variable domains, not shown: another chain or arm of the molecule) constant: ASTTAPKVFPLASHSAATSGSTVALGCLVSSYFPEPVTVSWNSGALTSGVHTFPSVLQSSGLYSLSSMVTVPASSLKSQTYICNVAHPASSTKVDKKIVIKECGGCPTCPECLSVGPSVFIFPPKPKDVLMISRTPTVTCVVVDVGHDFPDVQFNWYVDGVETHTATTEPKQEQNNSTYRVVSILAIQHKDWLSGKEFKCKVNNQALPAPVQKTISKPTGQPREPQVYVLAPHRDELSKNKVSVTCLVKDFYPTDIDIEWKSNGQPEPETKYSTTPAQLDSDGSYFLYSKLTVETNRWQQGTTFTCAVMHEALHEHYTEKSVSKSPGK | 6.1 nM
13 | equine IgG7 D312A mutant (antibody, part only; not given: Variable domains, not shown: another chain or arm of the molecule) constant: ASTTAPKVFPLASHSAATSGSTVALGCLVSSYFPEPVTVSWNSGALTSGVHTFPSVLQSSGLYSLSSMVTVPASSLKSQTYICNVAHPASSTKVDKKIVIKECGGCPTCPECLSVGPSVFIFPPKPKDVLMISRTPTVTCVVVDVGHDFPDVQFNWYVDGVETHTATTEPKQEQNNSTYRVVSILAIQHKAWLSGKEFKCKVNNQALPAPVQKTISKPTGQPREPQVYVLAPHRDELSKNKVSVTCLVKDFYPTDIDIEWKSNGQPEPETKYSTTPAQLDSDGSYFLYSKLTVETNRWQQGTTFTCAVMHEALHNHYTEKSVSKSPGK | 17.6 nM
14 | equine IgG7 N434F mutant (antibody, part only; not given: Variable domains, not shown: another chain or arm of the molecule; small tags and cut ends) constant: ASTTAPKVFPLASHSAATSGSTVALGCLVSSYFPEPVTVSWNSGALTSGVHTFPSVLQSSGLYSLSSMVTVPASSLKSQTYICNVAHPASSTKVDKKIVIKECGGCPTCPECLSVGPSVFIFPPKPKDVLMISRTPTVTCVVVDVGHDFPDVQFNWYVDGVETHTATTEPKQEQNNSTYRVVSILAIQHKDWLSGKEFKCKVNNQALPAPVQKTISKPTGQPREPQVYVLAPHRDELSKNKVSVTCLVKDFYPTDIDIEWKSNGQPEPETKYSTTPAQLDSDGSYFLYSKLTVETNRWQQGTTFTCAVMHEALHFHYTEKSVSKSPGK | 7.4 nM
15 | equine IgG7 N434D mutant (antibody, part only; not given: variable domains, not shown: another chain or arm of the molecule) constant: ASTTAPKVFPLASHSAATSGSTVALGCLVSSYFPEPVTVSWNSGALTSGVHTFPSVLQSSGLYSLSSMVTVPASSLKSQTYICNVAHPASSTKVDKKIVIKECGGCPTCPECLSVGPSVFIFPPKPKDVLMISRTPTVTCVVVDVGHDFPDVQFNWYVDGVETHTATTEPKQEQNNSTYRVVSILAIQHKDWLSGKEFKCKVNNQALPAPVQKTISKPTGQPREPQVYVLAPHRDELSKNKVSVTCLVKDFYPTDIDIEWKSNGQPEPETKYSTTPAQLDSDGSYFLYSKLTVETNRWQQGTTFTCAVMHEALHDHYTEKSVSKSPGK | 1.1 nM
16 | equine IgG7 N434C mutant (antibody, part only; not given: variable domains, not shown: another chain or arm of the molecule) constant: ASTTAPKVFPLASHSAATSGSTVALGCLVSSYFPEPVTVSWNSGALTSGVHTFPSVLQSSGLYSLSSMVTVPASSLKSQTYICNVAHPASSTKVDKKIVIKECGGCPTCPECLSVGPSVFIFPPKPKDVLMISRTPTVTCVVVDVGHDFPDVQFNWYVDGVETHTATTEPKQEQNNSTYRVVSILAIQHKDWLSGKEFKCKVNNQALPAPVQKTISKPTGQPREPQVYVLAPHRDELSKNKVSVTCLVKDFYPTDIDIEWKSNGQPEPETKYSTTPAQLDSDGSYFLYSKLTVETNRWQQGTTFTCAVMHEALHCHYTEKSVSKSPGK | 2.5 nM
